{"source": "the supplement of paper PMC11246515", "assay": "total protein half-life in vivo (active degradation + dilution); higher = more stable protein", "key": {"[1]": {"settings": "E. coli NCM3722 delta-clpP, growth: N-lim chemostat, doubling time 6 h"}, "[2]": {"settings": "E. coli NCM3722 delta-hslV, growth: N-lim chemostat, doubling time 6 h"}, "[3]": {"settings": "E. coli NCM3722 delta-lon, growth: N-lim chemostat, doubling time 6 h"}, "[4]": {"settings": "E. coli NCM3722 delta-smpB, growth: N-lim chemostat, doubling time 6 h"}, "[5]": {"settings": "wild type E. coli NCM3722, growth: C-lim chemostat, doubling time 3 h"}, "[6]": {"settings": "wild type E. coli NCM3722, growth: C-lim chemostat, doubling time 6 h"}, "[7]": {"settings": "wild type E. coli NCM3722, growth: C-lim chemostat, doubling time 12 h"}, "[8]": {"settings": "wild type E. coli NCM3722, growth: N-lim chemostat, doubling time 6 h"}, "[9]": {"settings": "wild type E. coli NCM3722, growth: N-lim chemostat, doubling time 12 h"}, "[10]": {"settings": "wild type E. coli NCM3722, growth: P-lim chemostat, doubling time 6 h"}, "[11]": {"settings": "wild type E. coli NCM3722, growth: P-lim chemostat, doubling time 12 h"}, "[12]": {"settings": "E. coli NCM3722 delta-clpP delta-lon delta-hslV, growth: N-lim chemostat, doubling time 6 h"}}, "note": "± gives the standard deviation of the averaged measurements.", "data": [{"sequence": "MAKEFGRPQRVAQEMQKEIALILQREIKDPRLGMMTTVSGVEMSRDLAYAKVYVTFLNDKDEDAVKAGIKALQEASGFIRSLLGKAMRLRIVPELTFFYDNSLVEGMRMSNLVTSVVKHDEERRVNPDDSKED [P0A7G2]", "values": [{"measurement": "total protein half-life in vivo", "setting": "[1]", "result": "4.7644 ± 0.0036", "unit": "h"}, {"measurement": "total protein half-life in vivo", "setting": "[2]", "result": "4.43 ± 0.063", "unit": "h"}, {"measurement": "total protein half-life in vivo", "setting": "[3]", "result": "5.76 ± 0.31", "unit": "h"}, {"measurement": "total protein half-life in vivo", "setting": "[4]", "result": "4.56 ± 0.23", "unit": "h"}, {"measurement": "total protein half-life in vivo", "setting": "[5]", "result": "2.87 ± 0.079", "unit": "h"}, {"measurement": "total protein half-life in vivo", "setting": "[6]", "result": "5.38 ± 0.84", "unit": "h"}, {"measurement": "total protein half-life in vivo", "setting": "[7]", "result": "10.3 ± 0.93", "unit": "h"}, {"measurement": "total protein half-life in vivo", "setting": "[8]", "result": "4.6 ± 0.22", "unit": "h"}, {"measurement": "total protein half-life in vivo", "setting": "[9]", "result": "7.76 ± 0.5", "unit": "h"}, {"measurement": "total protein half-life in vivo", "setting": "[10]", "result": "4.66 ± 0.12", "unit": "h"}, {"measurement": "total protein half-life in vivo", "setting": "[11]", "result": "8.771 ± 0.013", "unit": "h"}]}, {"sequence": "MNSNKELMQRRSQAIPRGVGQIHPIFADRAENCRVWDVEGREYLDFAGGIAVLNTGHLHPKVVAAVEAQLKKLSHTCFQVLAYEPYLELCEIMNQKVPGDFAKKTLLVTTGSEAVENAVKIARAATKRSGTIAFSGAYHGRTHYTLALTGKVNPYSAGMGLMPGHVYRALYPCPLHGISEDDAIASIHRIFKNDAAPEDIAAIVIEPVQGEGGFYASSPAFMQRLRALCDEHGIMLIADEVQSGAGRTGTLFAMEQMGVAPDLTTFAKSIAGGFPLAGVTGRAEVMDAVAPGGLGGTYAGNPIACVAALEVLKVFEQENLLQKANDLGQKLKDGLLAIAEKHPEIGDVRGLGAMIAIELFEDGDHNKPDAKLTAEIVARARDKGLILLSCGPYYNVLRILVPLTIEDAQIRQGLEIISQCFDEAKQ", "values": [{"measurement": "total protein half-life in vivo", "setting": "[12]", "result": "3.78 ± 0.21", "unit": "h"}, {"measurement": "total protein half-life in vivo", "setting": "[1]", "result": "2.96 ± 0.38", "unit": "h"}, {"measurement": "total protein half-life in vivo", "setting": "[2]", "result": "2.98 ± 0.17", "unit": "h"}, {"measurement": "total protein half-life in vivo", "setting": "[3]", "result": "3.23 ± 0.15", "unit": "h"}, {"measurement": "total protein half-life in vivo", "setting": "[4]", "result": "2.83 ± 0.11", "unit": "h"}, {"measurement": "total protein half-life in vivo", "setting": "[5]", "result": "2.993 ± 0.012", "unit": "h"}, {"measurement": "total protein half-life in vivo", "setting": "[6]", "result": "4.86 ± 0.26", "unit": "h"}, {"measurement": "total protein half-life in vivo", "setting": "[7]", "result": "9.33 ± 1.2", "unit": "h"}, {"measurement": "total protein half-life in vivo", "setting": "[8]", "result": "3.04 ± 0.32", "unit": "h"}, {"measurement": "total protein half-life in vivo", "setting": "[9]", "result": "4.1 ± 0.17", "unit": "h"}, {"measurement": "total protein half-life in vivo", "setting": "[10]", "result": "5.414 ± 0.018", "unit": "h"}, {"measurement": "total protein half-life in vivo", "setting": "[11]", "result": "9.92 ± 0.68", "unit": "h"}]}, {"sequence": "MALQNEKNSRYLLRDWKPENPAFWENKGKHIARRNLWISVSCLLLAFCVWMLFSAVTVNLNKIGFNFTTDQLFLLTALPSVSGALLRVPYSFMVPIFGGRRWTVFSTAILIIPCVWLGIAVQNPNTPFGIFIVIALLCGFAGANFASSMGNISFFFPKAKQGSALGINGGLGNLGVSVMQLVAPLVIFVPVFAFLGVNGVPQADGSVMSLANAAWIWVPLLAIATIAAWSGMNDIASSRASIADQLPVLQRLHLWLLSLLYLATFGSFIGFSAGFAMLAKTQFPDVNILRLAFFGPFIGAIARSVGGAISDKFGGVRVTLINFIFMAIFSALLFLTLPGTGSGNFIAFYAVFMGLFLTAGLGSGSTFQMIAVIFRQITIYRVKMKGGSDEQAHKEAVTETAAALGFISAIGAVGGFFIPQAFGMSLNMTGSPVGAMKVFLIFYIVCVLLTWLVYGRRKFSQK", "values": [{"measurement": "total protein half-life in vivo", "setting": "[12]", "result": "6.73 ± 1.1", "unit": "h"}, {"measurement": "total protein half-life in vivo", "setting": "[1]", "result": "6.58 ± 0.92", "unit": "h"}, {"measurement": "total protein half-life in vivo", "setting": "[2]", "result": "6.57 ± 1.3", "unit": "h"}, {"measurement": "total protein half-life in vivo", "setting": "[3]", "result": "6.52 ± 0.52", "unit": "h"}, {"measurement": "total protein half-life in vivo", "setting": "[4]", "result": "6.07 ± 0.48", "unit": "h"}, {"measurement": "total protein half-life in vivo", "setting": "[5]", "result": 2.53, "unit": "h"}, {"measurement": "total protein half-life in vivo", "setting": "[6]", "result": "6.34 ± 0.088", "unit": "h"}, {"measurement": "total protein half-life in vivo", "setting": "[7]", "result": "13.7 ± 1.8", "unit": "h"}, {"measurement": "total protein half-life in vivo", "setting": "[8]", "result": "4.92 ± 0.76", "unit": "h"}, {"measurement": "total protein half-life in vivo", "setting": "[9]", "result": "10.8 ± 2.6", "unit": "h"}, {"measurement": "total protein half-life in vivo", "setting": "[10]", "result": 7.05, "unit": "h"}, {"measurement": "total protein half-life in vivo", "setting": "[11]", "result": "12.86 ± 0.088", "unit": "h"}]}, {"sequence": "MKEVEKNEIKRLSDRLDAIRHQQADLSLVEAADKYAELEKEKATLEAEIARLREVHSQKLSKEAQKLMKMPFQRAITKKEQADMGKLKKSVRGLVVVHPMTALGREMGLQEMTGFSKTAF [P0ADK8]", "values": [{"measurement": "total protein half-life in vivo", "setting": "[12]", "result": "6.16 ± 1.2", "unit": "h"}, {"measurement": "total protein half-life in vivo", "setting": "[1]", "result": "4.37 ± 0.35", "unit": "h"}, {"measurement": "total protein half-life in vivo", "setting": "[2]", "result": "4.65 ± 0.78", "unit": "h"}, {"measurement": "total protein half-life in vivo", "setting": "[3]", "result": "5.34 ± 1.4", "unit": "h"}, {"measurement": "total protein half-life in vivo", "setting": "[4]", "result": "4.26 ± 0.64", "unit": "h"}, {"measurement": "total protein half-life in vivo", "setting": "[6]", "result": "> 8", "unit": "h"}, {"measurement": "total protein half-life in vivo", "setting": "[7]", "result": "9.91 ± 3.4", "unit": "h"}, {"measurement": "total protein half-life in vivo", "setting": "[8]", "result": "3.91 ± 0.96", "unit": "h"}, {"measurement": "total protein half-life in vivo", "setting": "[9]", "result": "6.76 ± 1.6", "unit": "h"}, {"measurement": "total protein half-life in vivo", "setting": "[10]", "result": "3.5 ± 0.53", "unit": "h"}, {"measurement": "total protein half-life in vivo", "setting": "[11]", "result": "6.29 ± 0.48", "unit": "h"}]}, {"sequence": "MESYSQNSNKLDFQHEARILNGIWLITALGLVATAGLAWGAKYIEITATKYDSPPMYVAIGLLLLCMYGLSKDINKINAAIAGVIYLFLLSLVAIVVASLVPVYAIIIVFSTAGAMFLISMLAGLLFNVDPGSHRFIIMMTLTGLALVIIVNAALMSERPIWIISCLMIVLWSGIISHGRNKLLELAGKCHSEELWSPVRCAFTGALTLYYYFIGFFGILAAIAITLVWQRHTRFFH", "values": [{"measurement": "total protein half-life in vivo", "setting": "[8]", "result": "> 8", "unit": "h"}]}, {"sequence": "MNNHATVQSSAPVSAAPLLQVSGALIAIIALILAAAWLVKRLGFAPKRTGVNGLKISASASLGARERVVVVDVEDARLVLGVTAGQINLLHKLPPSAPTEEIPQTDFQSVMKNLLKRSGRS", "values": [{"measurement": "total protein half-life in vivo", "setting": "[12]", "result": "> 8", "unit": "h"}, {"measurement": "total protein half-life in vivo", "setting": "[5]", "result": "> 4", "unit": "h"}, {"measurement": "total protein half-life in vivo", "setting": "[7]", "result": 8.29, "unit": "h"}, {"measurement": "total protein half-life in vivo", "setting": "[9]", "result": 1.64, "unit": "h"}]}]}
